Experimental data taken from publication PMC3585378 (PLoS ONE, 2013).

B1: His6-OspG (natural protein)
chain: MKITSTIIQTPFPFENNNSHAGIVTEPILGKLIGQGSTAEIFEDVNDSSALYKKYDLIGNQYNEILEMAWQESELFNAFYGDEASVVIQYGGDVYLRMLRVPGTPLSDIDTADIPDNIESLYLQLICKLNELSIIHYDLNTGNMLYDKESESLFPIDFRNIYAEYYAATKKDKEIIDRRLQMRTNDFYSLLNRKYL
notes: source: E. coli BL21 (DE3), purified (Ni-NTA)
B2: GST-tagged OspG protein (GST-OspG) (natural protein)
chain: B1 chain
notes: source: E. coli BL21 (DE3), purified (glutathione-Sepharose)

Legend:
GST-ubiquitin = biological target: T1, GST-ubiquitin (UniProt P0CG48 1-76); assay: pull-down; conditions: both partners purified
T1 construct: also called GST-tagged ubiquitin

His6-ubiquitin = His6-ubiquitin (UniProt P0CG48 1-76); assay: pull-down; conditions: both partners purified

Binder | binding result (GST-ubiquitin) | binding result (His6-ubiquitin)
B1 | binds | 
B2 |  | binds
